# B1: Protein PTHB1 (Homo sapiens), Q3SYG4 (parent)
# chain: MSLFKARDWWSTILGDKEEFDQGCLCLANVDNSGNGQDKIIVGSFMGYLRIFSPHPAKTGDGAQAEDLLLEVDLRDPVLQVEVGKFVSGTEMLHLAVLHSRKLCVYSVSGTLGNVEHGNQCQMKLMYEHNLQRTACNMTYGSFGGVKGRDLICIQSMDGMLMVFEQESYAFGRFLPGFLLPGPLAYSSRTDSFLTVSSCQQVESYKYQVLAFATDADKRQETEQQKLGSGKRLVVDWTLNIGEQALDICIVSFNQSASSVFVLGERNFFCLKDNGQIRFMKKLDWSPSCFLPYCSVSEGTINTLIGNHNNMLHIYQDVTLKWATQLPHIPVAVRVGCLHDLKGVIVTLSDDGHLQCSYLGTDPSLFQAPNVQSRELNYDELDVEMKELQKIIKDVNKSQGVWPMTEREDDLNVSVVVSPNFDSVSQATDVEVGTDLVPSVTVKVTLQNRVILQKAKLSVYVQPPLELTCDQFTFEFMTPDLTRTVSFSVYLKRSYTPSELEGNAVVSYSRPTDRNPDGIPRVIQCKFRLPLKLICLPGQPSKTASHKITIDTNKSPVSLLSLFPGFASQSDDDQVNVMGFHFLGGARITVLASKTSQRYRIQSEQFEDLWLITNELILRLQEYFEKQGVKDFACSFSGSIPLQEYFELIDHHFELRINGEKLEELLSERAVQFRAIQRRLLARFKDKTPAPLQHLDTLLDGTYKQVIALADAVEENQGNLFQSFTRLKSATHLVILLIALWQKLSADQVAILEAAFLPLQEDTQELGWEETVDAAISHLLKTCLSKSSKEQALNLNSQLNIPKDTSQLKKHITLLCDRLSKGGRLCLSTDAAAPQTMVMPGGCTTIPESDLEERSVEQDSTELFTNHRHLTAETPRPEVSPLQGVSE
# partner: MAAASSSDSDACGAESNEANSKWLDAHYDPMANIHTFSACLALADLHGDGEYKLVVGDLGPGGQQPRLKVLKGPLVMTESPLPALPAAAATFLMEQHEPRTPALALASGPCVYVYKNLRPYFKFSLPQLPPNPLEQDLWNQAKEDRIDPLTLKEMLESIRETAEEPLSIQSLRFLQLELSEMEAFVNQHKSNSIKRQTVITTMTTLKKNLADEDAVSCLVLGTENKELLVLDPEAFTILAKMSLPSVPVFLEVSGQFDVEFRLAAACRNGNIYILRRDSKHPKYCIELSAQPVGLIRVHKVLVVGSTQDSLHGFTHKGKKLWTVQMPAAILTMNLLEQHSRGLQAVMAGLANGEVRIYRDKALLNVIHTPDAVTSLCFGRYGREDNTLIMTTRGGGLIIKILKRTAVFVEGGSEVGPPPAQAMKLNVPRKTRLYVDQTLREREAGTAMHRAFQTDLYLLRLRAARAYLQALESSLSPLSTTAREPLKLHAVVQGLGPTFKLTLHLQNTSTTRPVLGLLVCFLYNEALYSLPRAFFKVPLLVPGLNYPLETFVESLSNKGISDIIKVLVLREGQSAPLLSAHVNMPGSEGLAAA
# Variants of: B1
# Settings: with bbs1_human BBS1, Q8NFJ9
row,effect of a mutation on the interaction,Variant
1,with no effect,K456E
2,with no effect,Q798A
3,with no effect,Q798E
4,with no effect,S423E
5,with no effect,L620E
6,with no effect,S797E
7,with no effect,L814E
8,with no effect,A775E
9,disrupting interaction strength,A775T
10,with no effect,V575E
11,with no effect,R683K
12,with no effect,L698E
13,with no effect,L698K
14,with no effect,T589E
15,with no effect,E887K
16,with no effect,L827K
17,with no effect,L827E
18,with no effect,Q569K
19,with no effect,P556E
20,with no effect,L457K
21,with no effect,Q791E
22,with no effect,R514A
23,with no effect,I776E

row,effect of a mutation on the interaction,Variant
1,with no effect,Q742A
2,with no effect,Q705A
3,with no effect,L779K
4,with no effect,L779A
5,with no effect,Q760E
6,with no effect,R449K
7,with no effect,Q883E
8,with no effect,F673K
9,with no effect,A750E
10,disrupting interaction strength,I735K
11,with no effect,C843A
12,with no effect,C843E
13,with no effect,A708K
14,with no effect,V416K
15,with no effect,L757K
16,with no effect,R854K
17,with no effect,R854A
18,with no effect,L733E
19,with no effect,Y460E
20,disrupting interaction strength,V734G
21,with no effect,L851K
22,with no effect,N866K
23,with no effect,I588K

row,effect of a mutation on the interaction,Variant
1,with no effect,W610K
2,with no effect,A832K
3,with no effect,L536A
4,with no effect,V838E
5,with no effect,S545A
6,with no effect,E664K
7,with no effect,Q447E
8,disrupting interaction strength,D804F
9,with no effect,L591A
10,with no effect,L609E
11,with no effect,K547A
12,with no effect,R824K
13,with no effect,T845K
14,with no effect,R493A
15,with no effect,T468E
16,with no effect,K743A
17,with no effect,F724K
18,with no effect,T865K
19,with no effect,P537A
20,with no effect,Q807E
21,with no effect,D435E
22,with no effect,H811E
23,with no effect,H811K

row,effect of a mutation on the interaction,Variant
1,with no effect,G565E
2,disrupting interaction strength,D747K
3,disrupting interaction strength,D747N
4,with no effect,D762K
5,disrupting interaction strength,A833S
6,with no effect,D817A
7,with no effect,L766A
8,with no effect,F624E
9,with no effect,Y495A
10,with no effect,L655A
11,with no effect,P464K
12,with no effect,P464A
13,disrupting interaction strength,G502R
14,with no effect,N412A
15,with no effect,L815K
16,with no effect,L740K
17,with no effect,L740E
18,with no effect,I617K
19,with no effect,Q462E
20,with no effect,Q462A
21,with no effect,Q453E
22,with no effect,I534E
23,with no effect,R726A

row,effect of a mutation on the interaction,Variant
1,with no effect,A754E
2,with no effect,K810A
3,disrupting interaction strength,T688K
4,with no effect,A831K
5,with no effect,L793A
6,with no effect,I523K
7,with no effect,Q677A
8,with no effect,G823E
9,with no effect,L699A
10,with no effect,A730K
11,with no effect,L795K
12,with no effect,H581K
13,with no effect,L808E
14,with no effect,L681K
15,with no effect,A633K
16,with no effect,D429E
17,with no effect,Q858A
18,with no effect,Q621K
19,with no effect,P691A
20,with no effect,E848A
21,with no effect,L583K
22,with no effect,T836A
23,with no effect,Y490E

row,effect of a mutation on the interaction,Variant
1,with no effect,Q764E
2,with no effect,E857K
3,with no effect,M477K
4,with no effect,T725E
5,with no effect,A504E
6,with no effect,F487A
7,with no effect,G518K
8,with no effect,L870E
9,with no effect,I846E
10,with no effect,T861A
11,with no effect,Q605E
12,with no effect,Q605A
13,with no effect,A670E
14,with no effect,F756E
15,with no effect,F476K
16,with no effect,D773A
17,with no effect,D773K
18,with no effect,L648K
19,with no effect,L559A
20,with no effect,L692E
21,with no effect,T844E
22,with no effect,S593A
23,with no effect,R818E

row,effect of a mutation on the interaction,Variant
1,with no effect,H869A
2,with no effect,L744E
3,with no effect,Q597A
4,with no effect,Q597E
5,with no effect,Q597K
6,with no effect,P419A
7,with no effect,G884A
8,with no effect,S729A
9,with no effect,S667E
10,with no effect,S639E
11,with no effect,D850E
12,with no effect,R510K
13,with no effect,L780K
14,with no effect,L825E
15,with no effect,T552A
16,with no effect,S820A
17,with no effect,I751E
18,with no effect,I751K
19,disrupting interaction strength,K554S
20,with no effect,F563K
21,with no effect,V430E
22,with no effect,V430A
23,with no effect,V430K

row,effect of a mutation on the interaction,Variant
1,with no effect,L666E
2,with no effect,L666A
3,with no effect,S439E
4,with no effect,W741K
5,with no effect,S787K
6,with no effect,E852K
7,with no effect,Q426A
8,with no effect,H652K
9,with no effect,E604K
10,with no effect,I801K
11,with no effect,N658K
12,with no effect,T512K
13,with no effect,N503K
14,with no effect,R587E
15,with no effect,I812A
16,with no effect,E761K
17,with no effect,K626E
18,with no effect,G579E
19,with no effect,F566A
20,disrupting interaction strength,G585R
21,with no effect,C783K
22,with no effect,D830K

# Source: IntAct's records for PubMed 29039417
